# Assay results as given in US20250009801A1.
# B1: Hz69H9-2.1 PG Ab (antibody, human IgG1, kappa, V domains shown)
# VH: QVQLVQSGAEVKKPGSSVKVSCKASGYSFSSYNIHWVRQAPGQGLEWMGYIAPFQGDARYNQKFKGRVTITADKSTSTAYMELSSLRSEDTAVYYCARLNRGNALDYWGQGTLVTVSS
# VL: DIVMTQSPDSLAVSLGERATINCKSSQSLFQSGNQRNYLTWYQQKPGQPPKLLIYWASTRESGVPDRFSGSGSGTDFTLTISSLQAEDVAVYYCQNNYIYPLTFGGGTKVEIKR
# Legend:
# [1] = target: human CLDN18.2 on cells (human) (UniProt P56856); test: flow cytometry on SUN601 (SNU601) cells
# [2] = target: human CLDN18.2 on cells (human) (UniProt P56856); test: flow cytometry on CHO-GS-hCLDN18.2 cells
# [3] = target: human CLDN18.2 on cells (human) (UniProt P56856); test: flow cytometry on DAN-G18.2 cells
binder,measurement,setting,value
B1,EC50,[1],261 nM
same,EC50,[2],8.21 nM
same,EC50,[3],6.95 nM
